Holding throughout (assay type): cell-based, human
The subject of data set [1] is native stop codons (TAA, TAG, TGA) of HEK293 transcripts. The experiment in a line: Ribosome footprint profiling of transcriptome-wide 3′UTRs. From the text:
The question was raised whether ACE-tRNAs that show efficacious suppression of premature stop codons may also induce global readthrough of native stop codons. To address this potential “off target” suppression, a transcriptome-wide quantitative profile of actively engaged ribosomes on all cellular transcripts was obtained by generating libraries of ribosome footprints from HEK293 cells expressing exogenous ACE-tRNAs or a control mock plasmid (puc57GG). Streptomycin was removed from the growth media to prevent readthrough artifacts. For comparison, the ribosome footprint library was also generated from cells in the presence or absence of G418 (150 μM, 48 hours). […] Only transcripts with a minimum threshold of 5 RPKM in the coding sequence and 0.5 RPKM in the 3′UTR in two replicate libraries were included for the quantitation comparison (254 transcripts in G418 and 495-748 transcripts in ACE-tRNAs). […] ACE-tRNAs examined here had no detectable change of 3′UTR ribosome density with the exception of ACE-tRNA Gln-UAA and Arg-UGA which induced approximately a 2-fold increase in 3′UTR ribosome density for the cognate stop codon complimentary to the ACE-tRNA anticodon. Understanding the biological significance of 2-fold readthrough of protein stops will require further study, but this effect is substantially lower compared to the 100- to 1000-fold suppression of PTC for the same ACE-tRNA.
Multiple in-frame stop codons are frequently found at the end of genes^37-39 and may cause a minor difference in overall 3′UTR ribosome density for ACE-tRNA and G418 treatment. Ribosome occupancy was examined at each nucleotide in the 3′UTR within a 60 nt region downstream of the stop codons. […] Reads were normalized per total million-mapped reads, compared against control cells, and reported as a log 2-fold change as in panel A. More than 5,200 transcripts were mapped to at least 1 footprint in the region of interest. […] Taken together, the ribosome profiling data argue that efficiency of native stop codon suppression by ACE-tRNAs is generally low, and markedly less than the level of PTC suppression.
Ribosome Footprint Profiling Library preparation. HEK293 cells transiently transfected with ACE-tRNAs and control plasmid (puc57GG) were grown in standard grown media in the absence of Pen-Strep for 48 h. Libraries were prepared as described^55, with a few modifications. Briefly, cells were rapidly cooled by addition of ice-cold PBS, lysed in lysis buffer (20 mM Tris-HCl/pH7.4, 150 mM NaCl, 5 mM MgCl2, 1 mM DTT, 1% (v/v) Triton X-100, and 25 U ml^−1 Turbo DNase I) for 10 min on ice, and triturated with ten times through a 26-G needle. After clearance by centrifugation at 16,000 g for 10 min at 4° C., the lysates were digested with 100 U RNase I (Ambion, USA) per A260 lysate at room temperature for 45 min with gentle agitation prior to adding 200 U RiboLock RNase Inhibitor (Thermo Scientific). Ribosome protected mRNA fragments were then isolated by loading lysates onto a 1M sucrose cushion prepared in modified polysome buffer (20 mM Tris-HCl/pH7.4, 150 mM NaCl, 8.5 mM MgCl2, 0.5 mM DTT, 20 U ml^−1 RiboLock RNase Inhibitor) and centrifugated at 70,000 rpm at 4° C. for 2 h using a Beckmen TLA-110 rotor. Ribosome pellets containing mRNA footprints were extracted using TRIzol and separated on a denaturing 12% polyacrylamide gel containing 8M urea. RNA fragments with sizes ranging from 26 to 34 nt were manually excised from the gel stained with SYBR Gold (Invitrogen) and isolated to generate the ribosome-protected fragment library. Contaminating rRNA fragments depleted using a Ribo-Zero kit (Illumina). 3′ Oligonucleotide adaptor ligation, reverse transcription, circularization, and secondary rRNA depletion using biotinylated rRNA depletion oligos (Table 9) were performed as described^55. Libraries were barcoded using indexing primers for each sample during PCR amplification. […]

For the next data set, the system named is NLuc-UAG PTC. The experiment in a line: NanoLuc nonsense reporter screen (all-in-one HTC plasmid), TAG/UAG PTC, HEK293 cells. From the text:
(§1) In order to enable the identification of the nucleotide composition and functional ability to suppress nonsense codons by new types of tRNA, an All-In-One Plasmid With A One Pot Cloning Reaction was invented for High Throughput Cloning FIG. 11. This approach enables the facile investigation of ACE-tRNA activity via luciferase activity in a standard 96 well format. Briefly, synthetic nucleotide sequences encoding for tRNA are ligated into the NanoLuc Reporter plasmid, with an example of the TGA nonsense reporter plasmid variant shown in FIG. 11. […] and TAG (amber) stop codon rescue vectors have been successfully designed and implemented in FIGS. 16-19. The benefits are the approach is that DNA oligos encoding for tRNA libraries can be ligated in the NanoLuc reporter plasmid with the presence of the restriction enzyme and ligase with the reaction pushed to nearly 100% incorporation of tRNA insert (FIG. 11)-thus the ‘one-pot’ designation. The reaction is transformed into E. coli, with the resultant cDNA purified by standard methods. Another benefit of the invented method is that the tRNA and reporter gen are within the single expression cassette, therefore lowering biological variability and improving data quality obtaining in resulting screens of tRNA suppression activity. The purified cDNA plasmids are then screened in high-throughput 96 well format for their ability to repair nonsense codons by inferred luciferase activity. The approach is suitable for the high-throughput screening of hundreds to thousands of tRNA for novel therapeutic activity.
(§2) The rationale of this study is rooted in the observation that there are multiple tRNA genes with unique sequences (isodecoders) for a given cognate amino acid (isoacceptors), leading to >400 tRNAs annotated in the human genome (http:lowelab.ucsc.edu/GtRNAdb/)^28, 29. First, tRNA genes were examined to identify individual ACE-tRNAs that retain suppression efficacy of PTCs in mammalian cells. In order to maximize sequence coverage, an all-in-one cDNA plasmid was generated that supports both high-throughput cloning (HTC) of ACE-tRNAs and quantitative measurement of PTC suppression using luminescence following delivery to mammalian cells, FIG. 21B. ACE-tRNA sequences were cloned as DNA oligos into the HTC plasmid using Golden Gate cloning^30 paired with ccdB negative selection^31. This strategy produced ˜100% cloning efficiency. ACE-tRNA suppression efficiency was read out from a split NanoLuc luciferase (NLuc) NanoBiT platform whereby the PTC of interest (UGA, UAA, or UAG) was introduced in-frame at the junction between the large bit and small bit domains, FIG. 21B^32, using a 96-well format and normalized to background obtained in NLuc-PTC expressing cells. Twenty-one glycine ACE-tRNAs were first evaluated for suppression of the UGA PTC, FIG. 22, top left, column 1 (violet). […] Given the high sequence conservation among the Gly-tRNAs screened for anti-codon tolerance (FIG. 27), it would be difficult to predict de novo which tRNA would be most amenable to anticodon-editing.
(§3) The parent plasmid used was pcDNA3.1(+). The cDNA encoding pNLuc was Gibson Assembled (New England Biolabs, USA) into restriction sites HindIII and XhoI. A glycine (codon gga), tryptophan ([…]), amber (tag), opal (tga) and ochre (taa), were added to amino acid position 160 during cDNA per. The pcDNA3.1(+) polyA sequence was replaced for one with no BbsI restriction sites using per based Gibson Assembly. The high throughput ACE-tRNA Golden Gate cloning site was generated by first inserting the 5′ leader sequence of the human tRNA^Tyr gene (bold) with a T7 promoter sequence upstream (italics)
(§4) tRNA gene sequences were obtained from the tRNA database tRNAscan-SE (http://gtrnadb.ucsc.edu/index.html; PMID: 26673694). […]

The next data set deals with NLuc-UAA PTC. The experiment in a line: NanoLuc nonsense reporter screen (all-in-one HTC plasmid), TAA/UAA PTC, HEK293 cells. The settings on record: Table 3, Gln TAA.
Excerpt: as §1, §2, §3, §4

Residue numbers refer to the chain shown, from its start.

As to `CN[C@@H]1[C@@H](O)[C@@H](O[C@@H]2[C@@H](O)[C@H](O[C@H]3O[C@H]([C@@H](C)O)[C@@H](O)[C@H](O)[C@H]3N)[C@@H](N)C[C@H]2N)OC[C@]1(C)O` [G418, reference compound], the “ribosome occupancy at each nucleotide in the 3′UTR downstream of stop codons” value in data set [1] (HEK293, log 2-fold change versus control) was “no observable change of ribosome occupancy”. In addition, in data set [1] (HEK293, G418 150 μM, 48 hours, cognate stop codon group), the “change of 3′UTR ribosome density versus control” value is “no observable effect”.

B1: TrpTAGchr12.trna6: ACE-tRNA Trp, TAG suppressor, SEQ ID NO: 36 (nucleic acid)
chain: CGTCGACCTCGTGGCGCAACGGTAGCGCGTCTGACTCTAGATCAGAAGGCTGCGTGTTCGAATCACGTCGGGGTCA
modifications: expressed or natural sequence
On to B1, for which the Ranking result with NLuc-UAG PTC (Table 4, Trp TAG) is given as “#4”.

B2: TrpTAGchr17.trna10: ACE-tRNA Trp, TAG suppressor, SEQ ID NO: 33 (nucleic acid)
chain: B1 chain with C20T, C50T, G60A, A62G
modifications: expressed or natural sequence
As to B2, in the data set on NLuc-UAG PTC (Table 4, Trp TAG), the Ranking result is given as “#1”.

B3: GluTAGchr1.trna123: ACE-tRNA Glu, TAG suppressor, SEQ ID NO: 40 (nucleic acid)
chain: CGTCTCCCTGGTGGTCTAGTGGCTAGGATTCGGCGCTCTAACCGCCGCGGCCCGGGTTCGATTCCCGGTCAGGGAA
modifications: expressed or natural sequence
B3: the Ranking entry in the data set on NLuc-UAG PTC (Table 5, Glu TAG) was “#3”.

B4: GluTAGchr1.trna106: ACE-tRNA Glu, TAG suppressor, SEQ ID NO: 41 (nucleic acid)
chain: B3 chain with C23T
modifications: expressed or natural sequence
In the case of B4, in the data set on NLuc-UAG PTC (Table 5, Glu TAG), the Ranking entry is recorded as “#4”.

B5: GlnTAAchr1.trna17: ACE-tRNA Gln, TAA suppressor, SEQ ID NO: 26 (nucleic acid)
chain: CGTCGGTTCCATGGTGTAATGGTGAGCACTCTGGACTTTAAATCCAGCGATCCGAGTTCGAGTCTCGGTGGAACCT
modifications: expressed or natural sequence
With B5, in the data set on NLuc-UAA PTC, the Ranking result is recorded as “#3”.

B6: GlnTAAchr17.trna14: ACE-tRNA Gln, TAA suppressor, SEQ ID NO: 28 (nucleic acid)
chain: B5 chain with T8C, G24T, G60A, G62A, A72G
modifications: expressed or natural sequence
Regarding B6, the Ranking entry in the data set with NLuc-UAA PTC is “#5”.

B7: GlnTAAchr6.trna1: ACE-tRNA Gln, TAA suppressor, SEQ ID NO: 27 (nucleic acid)
chain: B5 chain with G24T, G60A, G62A
modifications: expressed or natural sequence
For the molecule B7, in the data set on NLuc-UAA PTC, the Ranking result is on record as “#4”.

B8: GlnTAAchr1.trna101: ACE-tRNA Gln, TAA suppressor, SEQ ID NO: 24 (nucleic acid)
chain: B5 chain with G24A
modifications: expressed or natural sequence
As to B8, the Ranking result in the data set with NLuc-UAA PTC is “#1”.

B9: GlnTAAchr6.trna63: ACE-tRNA Gln, TAA suppressor, SEQ ID NO: 29 (nucleic acid)
chain: B5 chain with T8C, G24T, G49A, G62A, A72G
modifications: expressed or natural sequence
For B9, the Ranking result in the data set on NLuc-UAA PTC is “#5.2”.

B10: GlnTAAchr6.trna175: ACE-tRNA Gln, TAA suppressor, SEQ ID NO: 25 (nucleic acid)
chain: B5 chain with T7C, T8C, G24T, G60A, G62A, A72G
modifications: expressed or natural sequence
With B10, the Ranking result in the data set with NLuc-UAA PTC is on record as “#2”.

B11: GluTAGchr13.trna2: ACE-tRNA Glu, TAG suppressor, SEQ ID NO: 38 (nucleic acid)
chain: CGTCTCCCACATGGTCTAGCGGTTAGGATTCCTGGTTCTAACCCAGGCGGCCCGGGTTCGACTCCCGGTGTGGGAA
modifications: expressed or natural sequence
On to B11, for which the Ranking entry in the data set on NLuc-UAG PTC (Table 5, Glu TAG) is “#1”.

B12: GluTAGchr2.trna18: ACE-tRNA Glu, TAG suppressor, SEQ ID NO: 39 (nucleic acid)
chain: B11 chain with C10T, C48T, G70A
modifications: expressed or natural sequence
Take B12: in the data set with NLuc-UAG PTC (Table 5, Glu TAG), the Ranking entry is recorded as “#2”.

(Values after patent US20230203482A1, “Methods of Rescuing Stop Codons via Genetic Reassignment with ACE-tRNA” (THE WISTAR INSTITUTE OF ANATOMY AND BIOLOGY, priority 2017, published 2023).)
